This note sets out measurements from paper PMC11530851.

One may read the Kd as the concentration at which binding is half-saturated.

In this data set the target is SKIV2L (hSKI complex subunit);TTC37 (hSKI complex subunit);WDR61 (hSKI complex subunit) (human;human;human, UniProt Q15477;Q6PGP7;Q9GZS3 1-1246;1-1564;1-305, ||). In words: EMSA; 2 mM Mg2+; 25 mM Hepes-KOH pH 7.6, 2 mM Mg acetate, 50 mM NaCl, 1 mM DTT, 0.1 mg/ml BSA, 1 nM substrate, 37 C 30 min; 0.7% agarose gel at 4 C. A general note: In EMSA bound probe runs differently from free probe, usually more slowly.

B1: ss poly(A) DNA (ssDNA)
DNA: CCCCACCACCATCACTTAAAAAAAAAA
Regarding B1, the binding result is recorded as “binds”.

B2: ss poly(A) (ssRNA)
RNA: CCCCACCACCAUCACUUAAAAAAAAAA
Consider B2, for which the binding result is “binds”.

B3: Non-TEL18 (ssDNA)
DNA: AGCGTATCCGTTCAGTTG
In turn, B3 yielded a Kd of 30 nM.

B4: dsRNA (ss poly(A) + Css27) (dsRNA)
RNA 1: CCCCACCACCAUCACUUAAAAAAAAAA
RNA 2: UUUUUUUUUUAAGUGAUGGUGGUGGGG
Consider B4, for which the binding result was “no binding”.

B5: TEL18 (ssDNA)
DNA: GGTTAGGGTTAGGGTTAG
Take B5: the Kd is 12 nM. This counts as double-digit nanomolar.
